Experimental data from publication PMC4148193, “Chromatin Insulator Factors Involved in Long-Range DNA Interactions and Their Role in the Folding of the Drosophila Genome” (PLoS Genetics, 2014).
One block for each binder: values may come before it.

Tests used:
[1] = molecular target: T1, CP190 (Drosophila, UniProt Q24478 1-1096); test: fluorescence anisotropy; Hill n=2±0.3; 20 uM ZnSO4; FA/FCS: 30 mM Tris/HCl pH 7.5, 100 mM NaCl, 20 uM ZnSO4, 5 mM mercaptoethanol, 0.01 mg/ml BSA, 0.004% Tween20, 2.5 nM DNA; EMSA: 150 mM NaCl, 30 mM Tris/HCl pH; conditions: protein: recombinant; tags: N-term 6xHis; blunt
T1 sequence: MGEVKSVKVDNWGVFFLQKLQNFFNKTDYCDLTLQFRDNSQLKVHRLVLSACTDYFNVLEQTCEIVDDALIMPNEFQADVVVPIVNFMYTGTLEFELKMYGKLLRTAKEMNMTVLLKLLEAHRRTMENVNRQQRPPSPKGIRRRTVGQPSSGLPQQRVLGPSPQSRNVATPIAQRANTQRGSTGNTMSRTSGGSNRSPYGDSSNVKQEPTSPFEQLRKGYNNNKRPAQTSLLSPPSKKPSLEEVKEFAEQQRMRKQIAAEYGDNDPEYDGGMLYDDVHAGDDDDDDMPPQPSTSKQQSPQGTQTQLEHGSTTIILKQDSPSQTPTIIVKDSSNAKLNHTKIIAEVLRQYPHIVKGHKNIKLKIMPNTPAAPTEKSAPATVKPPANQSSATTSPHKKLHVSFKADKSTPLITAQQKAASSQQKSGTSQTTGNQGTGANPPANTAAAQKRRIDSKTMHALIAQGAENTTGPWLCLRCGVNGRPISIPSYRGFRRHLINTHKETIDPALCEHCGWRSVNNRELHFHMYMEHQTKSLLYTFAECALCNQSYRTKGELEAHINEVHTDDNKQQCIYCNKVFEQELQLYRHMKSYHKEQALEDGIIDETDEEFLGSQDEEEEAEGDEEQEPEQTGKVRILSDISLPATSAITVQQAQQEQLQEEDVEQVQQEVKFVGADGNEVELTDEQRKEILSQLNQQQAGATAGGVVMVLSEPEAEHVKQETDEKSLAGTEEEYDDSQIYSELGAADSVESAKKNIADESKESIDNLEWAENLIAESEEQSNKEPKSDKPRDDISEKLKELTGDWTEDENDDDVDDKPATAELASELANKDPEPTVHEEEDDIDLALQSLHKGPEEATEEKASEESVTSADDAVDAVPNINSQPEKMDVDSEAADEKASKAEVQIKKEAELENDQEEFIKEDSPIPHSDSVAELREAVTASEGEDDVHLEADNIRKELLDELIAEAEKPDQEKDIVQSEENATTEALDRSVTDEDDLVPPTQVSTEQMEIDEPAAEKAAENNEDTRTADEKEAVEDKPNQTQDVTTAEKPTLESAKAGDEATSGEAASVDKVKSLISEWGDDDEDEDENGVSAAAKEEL

[2] = molecular target: T2, BEAF32 (BEAF32B) (Drosophila, UniProt Q94513 1-282); test: fluorescence anisotropy; single-site fit; 20 uM ZnSO4; FA/FCS: 30 mM Tris/HCl pH 7.5, 100 mM NaCl, 20 uM ZnSO4, 5 mM mercaptoethanol, 0.01 mg/ml BSA, 0.004% Tween20, 2.5 nM DNA; EMSA: 150 mM NaCl, 30 mM Tris/HCl pH; conditions: protein: recombinant; tags: N-term MBP; C-term 6xHis; blunt
T2 sequence: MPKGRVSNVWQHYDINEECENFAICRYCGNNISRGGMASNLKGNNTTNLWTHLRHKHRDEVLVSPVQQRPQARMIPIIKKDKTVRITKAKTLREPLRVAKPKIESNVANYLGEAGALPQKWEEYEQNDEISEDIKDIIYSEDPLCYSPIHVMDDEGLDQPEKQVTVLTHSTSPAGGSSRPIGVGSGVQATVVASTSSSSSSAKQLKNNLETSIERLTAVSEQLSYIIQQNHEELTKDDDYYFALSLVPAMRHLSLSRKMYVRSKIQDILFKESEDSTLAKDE

[3] = molecular target: the molecule itself; test: SEC; gel-filtration analysis of CP190-BTB/POZ; conditions not shown
[4] = molecular target: T3, Chromator, full-length, His-tagged (Drosophila, UniProt Q86BS3 1-926); test: fluorescence polarisation; fluorescence anisotropy of CP190-BTB/POZ-Cy5 as reporter of Chromator binding; apparent affinity; conditions: both partners purified
T3 construct: Chromator (Chriz), Drosophila; amplified from S2 cell cDNA; also called Chriz; source: E. coli BL21 (DE3)-pLysS, purified
T3 sequence (looked up): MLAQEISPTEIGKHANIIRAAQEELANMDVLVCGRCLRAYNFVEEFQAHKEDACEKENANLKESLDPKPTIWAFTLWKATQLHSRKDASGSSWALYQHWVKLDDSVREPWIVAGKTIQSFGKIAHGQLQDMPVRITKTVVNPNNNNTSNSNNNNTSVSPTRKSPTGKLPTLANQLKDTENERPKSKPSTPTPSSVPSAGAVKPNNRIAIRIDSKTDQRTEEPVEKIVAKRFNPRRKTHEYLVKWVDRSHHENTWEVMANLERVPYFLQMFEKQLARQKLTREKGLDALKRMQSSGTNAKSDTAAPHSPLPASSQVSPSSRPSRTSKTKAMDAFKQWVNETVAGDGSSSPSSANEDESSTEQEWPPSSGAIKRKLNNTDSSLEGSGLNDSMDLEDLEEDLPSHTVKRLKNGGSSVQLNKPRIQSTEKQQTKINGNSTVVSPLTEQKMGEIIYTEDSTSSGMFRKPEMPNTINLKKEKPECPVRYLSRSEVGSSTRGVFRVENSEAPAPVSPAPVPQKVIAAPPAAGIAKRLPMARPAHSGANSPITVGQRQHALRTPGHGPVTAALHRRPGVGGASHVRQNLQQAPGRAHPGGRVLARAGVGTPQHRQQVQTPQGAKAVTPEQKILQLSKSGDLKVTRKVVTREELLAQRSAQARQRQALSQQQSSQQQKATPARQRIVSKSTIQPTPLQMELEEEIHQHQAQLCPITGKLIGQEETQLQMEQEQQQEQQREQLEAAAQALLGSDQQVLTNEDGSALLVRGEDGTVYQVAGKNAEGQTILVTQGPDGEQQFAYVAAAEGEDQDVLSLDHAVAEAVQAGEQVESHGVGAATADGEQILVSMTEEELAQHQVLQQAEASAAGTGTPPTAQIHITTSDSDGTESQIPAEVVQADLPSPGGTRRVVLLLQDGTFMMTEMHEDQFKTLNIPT

B1: DNANS (dsDNA)
DNA 1: GGACAGGTATTGTGCCATACTGACCACATCGTCTTGGTCTATAAGCTCCACGACATCC
DNA 2: GGATGTCGTGGAGCTTATAGACCAAGACGATGTGGTCAGTATGGCACAATACCTGTCC
Kd [1]: 109 ± 5 nM | Kd [2]: 165 ± 30 nM

B2: CP190-BTB/POZ (BTB/POZ domain of CP190), His-tagged (domain or fragment, Drosophila)
chain: MGEVKSVKVDNWGVFFLQKLQNFFNKTDYCDLTLQFRDNSQLKVHRLVLSACTDYFNVLEQTCEIVDDALIMPNEFQADVVVPIVNFMYTGTLEFELKMYGKLLRTAKEMNMTVLLKLLEAHRRTMENVNRQQR
notes: N-terminal BTB/POZ domain of CP190, Drosophila; source: E. coli BL21 (DE3)-pLysS, purified
stoichiometry N [3]: 2

Kd [4]: ~50 nM
B3: CP190-BTB/POZ-Cy5 (CP190-BTB/POZ Cy5-labelled on its N-terminal) (domain or fragment, Drosophila)
chain: B2 chain
modifications: Cy5 on the N-terminal
notes: N-terminal BTB/POZ domain of CP190, Drosophila; same construct as m4, labelled with Cy5; Same protein as m4 with a Cy5 label; source: E. coli BL21 (DE3)-pLysS, purified
